Measured values from article PMC3776929 (Cell, 2013).

T1: Swc2 (S. cerevisiae, UniProt Q03388 1-795)
T1 construct: Swc2, C-Module subunit of SWR1, S. cerevisiae; source: endogenous, S. cerevisiae; co-purified in the SWR1 complex
T1 sequence (looked up): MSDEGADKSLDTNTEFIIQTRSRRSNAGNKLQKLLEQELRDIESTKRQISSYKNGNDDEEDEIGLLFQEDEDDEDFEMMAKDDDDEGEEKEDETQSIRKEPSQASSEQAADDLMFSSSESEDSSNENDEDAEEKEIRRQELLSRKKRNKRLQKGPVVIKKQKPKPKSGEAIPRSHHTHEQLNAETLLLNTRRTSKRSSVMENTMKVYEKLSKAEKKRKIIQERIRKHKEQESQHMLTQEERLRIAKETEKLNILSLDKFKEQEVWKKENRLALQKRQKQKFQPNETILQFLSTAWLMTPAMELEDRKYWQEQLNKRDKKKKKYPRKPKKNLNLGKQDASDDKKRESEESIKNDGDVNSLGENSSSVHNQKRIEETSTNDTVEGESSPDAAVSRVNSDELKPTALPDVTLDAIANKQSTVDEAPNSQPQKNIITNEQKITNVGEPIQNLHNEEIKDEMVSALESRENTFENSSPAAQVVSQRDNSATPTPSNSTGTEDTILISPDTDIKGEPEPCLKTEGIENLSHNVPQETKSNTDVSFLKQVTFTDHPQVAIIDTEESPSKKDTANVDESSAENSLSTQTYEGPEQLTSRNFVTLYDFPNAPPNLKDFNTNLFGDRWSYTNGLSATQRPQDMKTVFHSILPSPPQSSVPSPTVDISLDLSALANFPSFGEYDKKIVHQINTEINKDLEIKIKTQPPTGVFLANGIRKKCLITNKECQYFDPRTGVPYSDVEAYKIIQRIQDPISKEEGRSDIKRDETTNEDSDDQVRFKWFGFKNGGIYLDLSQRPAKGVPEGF

B1: Swc3 (natural protein, S. cerevisiae, UniProt P31376 1-625, looked up)
chain: MPAVLRTRSKESSIEQKPASRTRTRSRRGKRGRDDDDDDDDEESDDAYDEVGNDYDEYASRAKLATNRPFEIVAGLPASVELPNYNSSLTHPQSIKNSGVLYDSLVSSRRTWVQGEMFELYWRRPKKIVSESTPAATESPTSGTIPLIRDKMQKMCDCVMSGGPHTFKVRLFILKNDKIEQKWQDEQELKKKEKELKRKNDAEAKRLRMEERKRQQMQKKIAKEQKLQLQKENKAKQKLEQEALKLKRKEEMKKLKEQNKNKQGSPSSSMHDPRMIMNLNLMAQEDPKLNTLMETVAKGLANNSQLEEFKKFIEIAKKRSLEENPVNKRPSVTTTRPAPPSKAKDVAEDHRLNSITLVKSSKTAATEPEPKKADDENAEKQQSKEAKTTAESTQVDVKKEEEDVKEKGVKSEDTQKKEDNQVVPKRKRRKNAIKEDKDMQLTAFQQKYVQGAEIILEYLEFTHSRYYLPKKSVVEFLEDTDEIIISWIVIHNSKEIEKFKTKKIKAKLKADQKLNKEDAKPGSDVEKEVSFNPLFEADCPTPLYTPMTMKLSGIHKRFNQIIRNSVSPMEEVVKEMEKILQIGTRLSGYNLWYQLDGYDDEALSESLRFELNEWEHAMRSRRHKR
notes: Swc3, C-Module subunit of SWR1, S. cerevisiae; source: endogenous, S. cerevisiae; co-purified in the SWR1 complex
B2: Arp4 (natural protein, S. cerevisiae, UniProt P80428 1-489, looked up)
chain: MSNAALQVYGGDEVSAVVIDPGSYTTNIGYSGSDFPQSILPSVYGKYTADEGNKKIFSEQSIGIPRKDYELKPIIENGLVIDWDTAQEQWQWALQNELYLNSNSGIPALLTEPVWNSTENRKKSLEVLLEGMQFEACYLAPTSTCVSFAAGRPNCLVVDIGHDTCSVSPIVDGMTLSKSTRRNFIAGKFINHLIKKALEPKEIIPLFAIKQRKPEFIKKTFDYEVDKSLYDYANNRGFFQECKETLCHICPTKTLEETKTELSSTAKRSIESPWNEEIVFDNETRYGFAEELFLPKEDDIPANWPRSNSGVVKTWRNDYVPLKRTKPSGVNKSDKKVTPTEEKEQEAVSKSTSPAANSADTPNETGKRPLEEEKPPKENNELIGLADLVYSSIMSSDVDLRATLAHNVVLTGGTSSIPGLSDRLMTELNKILPSLKFRILTTGHTIERQYQSWLGGSILTSLGTFHQLWVGKKEYEEVGVERLLNDRFR
notes: Arp4, actin-related protein, N-Module subunit of SWR1, S. cerevisiae; source: endogenous, S. cerevisiae; co-purified in the SWR1 complex

What was measured:
[1] = target: T2, Swr1, FLAG-tagged catalytic subunit of the SWR1 complex (S. cerevisiae, UniProt Q05471 1-1514); experiment: co-IP; FLAG affinity purification of SWR1 (or a subcomplex) from S. cerevisiae, eluted with 3× FLAG peptide; SDS-PAGE (4%-12% Bis-Tris), Coomassie or SYPRO Orange stain; band intensities normalised for protein size for the stoichiometry; conditions: partners not purified
T2 construct: Swr1, catalytic ATPase subunit of the SWR1 complex, S. cerevisiae; HSA domain in the N-terminal half, split ATPase domain with long insert in the C-terminal half; also called Swr1-3xFLAG; Swr1 ATPase
T2 sequence (Q05471 whole entry, the tested form may be a part, one chain of several): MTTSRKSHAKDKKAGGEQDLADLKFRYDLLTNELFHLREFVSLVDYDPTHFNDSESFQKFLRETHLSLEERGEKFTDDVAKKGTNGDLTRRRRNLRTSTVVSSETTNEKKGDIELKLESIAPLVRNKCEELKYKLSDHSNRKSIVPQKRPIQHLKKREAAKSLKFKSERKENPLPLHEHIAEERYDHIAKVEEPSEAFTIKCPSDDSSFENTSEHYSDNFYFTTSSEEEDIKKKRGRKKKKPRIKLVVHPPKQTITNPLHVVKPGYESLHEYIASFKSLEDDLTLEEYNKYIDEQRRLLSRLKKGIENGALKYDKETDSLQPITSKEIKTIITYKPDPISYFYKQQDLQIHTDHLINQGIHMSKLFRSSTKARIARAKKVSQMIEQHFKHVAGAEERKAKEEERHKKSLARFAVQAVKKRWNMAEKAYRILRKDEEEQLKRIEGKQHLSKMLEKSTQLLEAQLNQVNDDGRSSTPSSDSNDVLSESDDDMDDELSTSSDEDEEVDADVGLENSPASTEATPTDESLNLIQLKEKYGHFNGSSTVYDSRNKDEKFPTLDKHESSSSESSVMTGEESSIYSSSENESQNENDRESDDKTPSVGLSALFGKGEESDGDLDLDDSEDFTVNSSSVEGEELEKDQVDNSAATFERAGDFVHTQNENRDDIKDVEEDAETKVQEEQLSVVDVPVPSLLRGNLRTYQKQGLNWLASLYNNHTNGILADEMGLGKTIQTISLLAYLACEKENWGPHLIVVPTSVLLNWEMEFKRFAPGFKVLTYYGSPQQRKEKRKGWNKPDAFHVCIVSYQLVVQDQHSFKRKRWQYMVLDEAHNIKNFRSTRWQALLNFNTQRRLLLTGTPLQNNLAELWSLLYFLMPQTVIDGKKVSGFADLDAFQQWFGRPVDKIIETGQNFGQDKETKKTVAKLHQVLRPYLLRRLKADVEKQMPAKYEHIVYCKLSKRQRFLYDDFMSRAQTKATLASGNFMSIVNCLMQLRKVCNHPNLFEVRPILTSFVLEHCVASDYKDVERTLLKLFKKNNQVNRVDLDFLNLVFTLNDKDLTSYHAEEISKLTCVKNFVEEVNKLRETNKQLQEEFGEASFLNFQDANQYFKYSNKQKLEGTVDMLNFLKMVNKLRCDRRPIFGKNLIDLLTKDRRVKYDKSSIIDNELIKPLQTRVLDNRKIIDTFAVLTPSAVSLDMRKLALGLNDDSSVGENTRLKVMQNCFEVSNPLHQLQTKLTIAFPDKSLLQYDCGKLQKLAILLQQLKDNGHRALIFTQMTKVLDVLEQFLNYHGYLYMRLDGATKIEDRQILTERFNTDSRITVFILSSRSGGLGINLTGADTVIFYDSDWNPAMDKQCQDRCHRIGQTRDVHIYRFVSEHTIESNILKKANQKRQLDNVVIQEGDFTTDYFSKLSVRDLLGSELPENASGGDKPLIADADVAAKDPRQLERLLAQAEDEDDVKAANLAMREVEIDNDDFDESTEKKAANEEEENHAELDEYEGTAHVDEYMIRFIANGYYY

Ino80 = target: T3, Ino80 (UniProt P53115 1-1489); experiment: co-IP; INO80 complex purified by affinity and glycerol gradient, resolved on 4%-12% Bis-Tris gels in MOPS buffer; band intensities normalised for protein size; conditions: partners not purified
T3 construct: Ino80, catalytic subunit of the INO80 complex
T3 sequence (P53115 whole entry): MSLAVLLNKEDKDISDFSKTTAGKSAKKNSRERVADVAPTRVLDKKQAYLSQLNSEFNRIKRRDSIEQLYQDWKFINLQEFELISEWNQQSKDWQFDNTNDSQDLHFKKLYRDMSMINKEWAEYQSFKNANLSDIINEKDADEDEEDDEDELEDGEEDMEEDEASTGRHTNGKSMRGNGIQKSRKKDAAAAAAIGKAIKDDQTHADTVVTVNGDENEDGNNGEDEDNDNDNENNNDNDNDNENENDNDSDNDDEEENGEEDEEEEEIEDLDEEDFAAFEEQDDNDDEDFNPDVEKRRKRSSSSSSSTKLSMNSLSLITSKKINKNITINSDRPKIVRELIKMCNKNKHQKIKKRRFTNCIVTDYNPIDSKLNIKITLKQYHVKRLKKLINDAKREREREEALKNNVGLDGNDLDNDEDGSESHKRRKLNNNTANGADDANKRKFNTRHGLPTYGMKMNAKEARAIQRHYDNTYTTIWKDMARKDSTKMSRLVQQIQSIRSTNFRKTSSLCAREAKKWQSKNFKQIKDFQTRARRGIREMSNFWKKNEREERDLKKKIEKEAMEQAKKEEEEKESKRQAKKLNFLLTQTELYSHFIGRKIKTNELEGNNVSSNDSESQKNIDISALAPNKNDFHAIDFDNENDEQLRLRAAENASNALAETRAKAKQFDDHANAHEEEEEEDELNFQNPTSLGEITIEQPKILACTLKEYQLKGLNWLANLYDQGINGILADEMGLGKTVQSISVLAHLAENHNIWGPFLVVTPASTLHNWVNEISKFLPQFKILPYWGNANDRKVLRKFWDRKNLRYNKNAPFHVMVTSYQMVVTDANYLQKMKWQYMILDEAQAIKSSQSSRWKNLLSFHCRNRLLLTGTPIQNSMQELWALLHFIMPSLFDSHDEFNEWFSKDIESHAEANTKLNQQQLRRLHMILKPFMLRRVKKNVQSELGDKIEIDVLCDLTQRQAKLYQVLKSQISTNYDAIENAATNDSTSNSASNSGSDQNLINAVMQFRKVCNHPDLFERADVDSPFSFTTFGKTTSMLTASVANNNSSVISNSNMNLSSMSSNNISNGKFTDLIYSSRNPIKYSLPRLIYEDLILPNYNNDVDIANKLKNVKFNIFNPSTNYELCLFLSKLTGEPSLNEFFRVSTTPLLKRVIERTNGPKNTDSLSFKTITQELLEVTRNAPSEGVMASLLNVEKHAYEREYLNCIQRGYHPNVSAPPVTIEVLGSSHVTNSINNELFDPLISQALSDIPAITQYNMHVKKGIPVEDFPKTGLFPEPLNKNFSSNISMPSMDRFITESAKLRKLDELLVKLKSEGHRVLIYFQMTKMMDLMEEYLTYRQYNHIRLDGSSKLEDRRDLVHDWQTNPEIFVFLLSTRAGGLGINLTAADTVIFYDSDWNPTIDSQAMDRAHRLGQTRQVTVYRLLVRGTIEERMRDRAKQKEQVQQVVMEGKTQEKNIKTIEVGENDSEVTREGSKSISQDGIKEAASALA

[2] = target: T2, Swr1, FLAG-tagged catalytic subunit of …; experiment: cross-linking; ∼45 μg affinity-purified SWR1 cross-linked with 1 mM DSS d0/d12 in SWR1 buffer, 37°C, 30 min; trypsin, SEC enrichment, LC-MS/MS, xQuest (CX-MS); conditions: both partners purified
Swc3 = target: B1; experiment: as above; conditions: both partners purified
Arp4 = target: B2; experiment: as above; conditions: both partners purified
Swc2 = target: T1, Swc2; experiment: as above; conditions: both partners purified

Row | stoichiometry N [1] | stoichiometry N (Ino80) | binding result [2] | binding result (Arp4) | Binder | also measured
1 | ~3 | ~3 | – | – | Rvb2 (natural protein, S. cerevisiae, UniProt Q12464 1-471, looked up, Rvb2, AAA+ ATPase, S. cerevisiae (YPL235W); also called AAA+ ATPase Rvb2; source: endogenous, S. cerevisiae; co-purified in the SWR1 and INO80 complexes) MSIQTSDPNETSDLKSLSLIAAHSHITGLGLDENLQPRPTSEGMVGQLQARRAAGVILKMVQNGTIAGRAVLVAGPPSTGKTALAMGVSQSLGKDVPFTAIAGSEIFSLELSKTEALTQAFRKSIGIKIKEETELIEGEVVEIQIDRSITGGHKQGKLTIKTTDMETIYELGNKMIDGLTKEKVLAGDVISIDKASGKITKLGRSFARSRDYDAMGADTRFVQCPEGELQKRKTVVHTVSLHEIDVINSRTQGFLALFTGDTGEIRSEVRDQINTKVAEWKEEGKAEIVPGVLFIDEVHMLDIECFSFINRALEDEFAPIVMMATNRGVSKTRGTNYKSPHGLPLDLLDRSIIITTKSYNEQEIKTILSIRAQEEEVELSSDALDLLTKTGVETSLRYSSNLISVAQQIAMKRKNNTVEVEDVKRAYLLFLDSARSVKYVQENESQYIDDQGNVQISIAKSADPDAMDTTE | –
2 | – | – | binds | – | B1 | –
3 | – | – | – | – | B2 | binding result (Swc3): binds
4 | ~3 | ~3 | – | binds | Rvb1 (natural protein, S. cerevisiae, UniProt Q03940 1-463, looked up, Rvb1, AAA+ ATPase, S. cerevisiae (YDR190C); also called AAA+ ATPase Rvb1; source: endogenous, S. cerevisiae; co-purified in the SWR1 and INO80 complexes) MVAISEVKENPGVNSSNSGAVTRTAAHTHIKGLGLDESGVAKRVEGGFVGQIEAREACGVIVDLIKAKKMSGRAILLAGGPSTGKTALALAISQELGPKVPFCPLVGSELYSVEVKKTETLMENFRRAIGLRIKETKEVYEGEVTELTPEDAENPLGGYGKTISHVIVGLKSAKGTKTLRLDPTIYESIQREKVSIGDVIYIEANTGAVKRVGRSDAYATEFDLETEEYVPLPKGEVHKKKEIVQDVTLHDLDVANARPQGGQDVISMMGQLLKPKKTEITEKLRQEVNKVVAKYIDQGVAELIPGVLFIDEVNMLDIEIFTYLNKALESNIAPVVVLASNRGMTTVRGTEDVISPHGVPPDLIDRLLIVRTLPYDKDEIRTIIERRATVERLQVESSALDLLATMGTETSLRYALQLLAPCGILAQTSNRKEIVVNDVNEAKLLFLDAKRSTKILETSANYL | –
5 | – | – | binds | binds | Swc4 (natural protein, S. cerevisiae, UniProt P53201 1-476, looked up, Swc4, N-Module subunit of SWR1, S. cerevisiae; source: endogenous, S. cerevisiae; co-purified in the SWR1 complex) MSSSDIFDVLNIKQKSRSPTNGQVSVPSSSAANRPKPQVTGMQRELFNLLGENQPPVVIKSGNNFKEKMLSTSKPSPWSFVEFKANNSVTLRHWVKGSKELIGDTPKESPYSKFNQHLSIPSFTKEEYEAFMNENEGTQKSVESEKNHNENFTNEKKDESKNSWSFEEIEYLFNLCKKYDLRWFLIFDRYSYNNSRTLEDLKEKFYYTCRNYFKASDPSNPLLSSLNFSAEKEIERKKYLQRLLSRSAAEIAEEEALVVESKKFEMAAKRTLAERESLLRLLDSPHSDQTITQYLTSQGMSQLYNALLADKTRKRKHDLNIPENPWMKQQQQFAQHRQLQQLNVKKSEVKENLSPKKTKRQRQEMQTALKRKSESAYAEQLLKDFNSDERKALGVITHGEKLSPGVYLRSTKLSTFKPALQNKILAILQELSLPSRPVMPSFDVMERQEELLKKINTLIDLKKHVDKYEAGMSITK | –
6 | – | – | – | – | Bdf1 (natural protein, S. cerevisiae, UniProt P35817 1-686, looked up, Bdf1, N-Module subunit of SWR1, S. cerevisiae; source: endogenous, S. cerevisiae; co-purified in the SWR1 complex) MTDITPVQNDVDVNGNNVNDDVSSNLKRPIDQGDPSNGLAEEENPANNQLHLKKARLDGDALTSSPAGLAENGIEGATLAANGENGYNATGSGAEDEQQGLKKEEGGQGTKQEDLDENSKQELPMEVPKEPAPAPPPEPDMNNLPQNPIPKHQQKHALLAIKAVKRLKDARPFLQPVDPVKLDIPFYFNYIKRPMDLSTIERKLNVGAYEVPEQITEDFNLMVNNSIKFNGPNAGISQMARNIQASFEKHMLNMPAKDAPPVIAKGRRSSAQEDAPIVIRRAQTHNGRPKRTIHPPKSKDIYPYESKKPKSKRLQQAMKFCQSVLKELMAKKHASYNYPFLEPVDPVSMNLPTYFDYVKEPMDLGTIAKKLNDWQYQTMEDFERDVRLVFKNCYTFNPDGTIVNMMGHRLEEVFNSKWADRPNLDDYDSDEDSRTQGDYDDYESEYSESDIDETIITNPAIQYLEEQLARMKVELQQLKKQELEKIRKERRLARGSKKRGKRSKGRSGSKNASSKGRRDKKNKLKTVVTYDMKRIITERINDLPTSKLERAIDIIKKSMPNISEDDEVELDLDTLDNHTILTLYNTFFRQYESSSGASNGLDGTSGVTRDASSLSPTSAGSRKRRSKALSQEEQSRQIEKIKNKLAILDSASPLSQNGSPGQIQSAAHNGFSSSSDDDVSSESEEE | binding result (Swc2): binds
